FireProtDB (doi:10.1110/ps.051838206)
“And” between values parts separate entries of the source, which are not always exact repeats. Identical values can stand only once.

B1: Azurin, P00282 (parent)
chain: MLRKLAAVSLLSLLSAPLLAAECSVDIQGNDQMQFNTNAITVDKSCKQFTVNLSHPGNLPKNVMGHNWVLSTAADMQGVVTDGMASGLDKDYLKPDDSRVIAHTKLIGSGEKDSVTFDVSKLKEGEQYMFFCTFPGHSALMKGTLTLK

Variants of: B1
Settings: Pseudomonas aeruginosa (strain ATCC 15692 / DSM 22644 / CIP 104116 / JCM 14847 / LMG 12228 / 1C / PRS 101 / PAO1), pH 7, 25 °C, GdnHCl, Tris-HCl 100 mM, reversible: Yes, structure 5AZU, whole UniProt chain shown

Variant: V51T
- unfolding free energy (CD): 4.9 kcal/mol and 8.84 kcal/mol
- unfolding free energy (Fluorescence): 4.9 kcal/mol and 8.84 kcal/mol

Variant: I40T
- ddG of mutation (higher = less stable) (CD): 2.39 kcal/mol and 1.91 kcal/mol
- ddG of mutation (higher = less stable) (Fluorescence): 2.39 kcal/mol and 1.91 kcal/mol

Variant: I40A
- ddG of mutation (higher = less stable) (Fluorescence): 1.55 kcal/mol
- unfolding free energy (Fluorescence): 4.42 kcal/mol

Variant: I40V
- unfolding free energy (CD): 5.59 kcal/mol and 12.9 kcal/mol
- unfolding free energy (Fluorescence): 5.59 kcal/mol and 12.9 kcal/mol

Variant: I101A
- ddG of mutation (higher = less stable) (CD): 2.39 kcal/mol
- unfolding free energy (CD): 3.59 kcal/mol
- ddG of mutation (higher = less stable) (Fluorescence): 2.39 kcal/mol
- unfolding free energy (Fluorescence): 3.59 kcal/mol

Variant: I101V
- unfolding free energy (CD): 5.9 kcal/mol and 12.7 kcal/mol
- unfolding free energy (Fluorescence): 5.9 kcal/mol and 12.7 kcal/mol

Variant: I101T
- ddG of mutation (higher = less stable) (CD): 2.51 kcal/mol and 3.35 kcal/mol
- unfolding free energy (CD): 3.47 kcal/mol and 9.56 kcal/mol
- ddG of mutation (higher = less stable) (Fluorescence): 2.51 kcal/mol and 3.35 kcal/mol
- unfolding free energy (Fluorescence): 3.47 kcal/mol and 9.56 kcal/mol

Variant: V115T
- unfolding free energy (CD): 6.93 kcal/mol and 12.8 kcal/mol
- unfolding free energy (Fluorescence): 6.93 kcal/mol and 12.8 kcal/mol

Variant: L70T
- ddG of mutation (higher = less stable) (CD): 2.34 kcal/mol and 2.15 kcal/mol
- unfolding free energy (CD): 3.63 kcal/mol and 10.8 kcal/mol
- ddG of mutation (higher = less stable) (Fluorescence): 2.15 kcal/mol
- unfolding free energy (Fluorescence): 10.8 kcal/mol

Variant: L70V
- ddG of mutation (higher = less stable) (CD): 0.36 kcal/mol and 0.24 kcal/mol
- unfolding free energy (CD): 5.62 kcal/mol and 12.7 kcal/mol
- ddG of mutation (higher = less stable) (Fluorescence): 0.36 kcal/mol and 0.24 kcal/mol
- unfolding free energy (Fluorescence): 5.62 kcal/mol and 12.7 kcal/mol

Variant: V42T
- unfolding free energy (CD): 5.02 kcal/mol and 8.6 kcal/mol
- unfolding free energy (Fluorescence): 5.02 kcal/mol and 8.6 kcal/mol

Variant: V42A
- ddG of mutation (higher = less stable) (CD): 1.43 kcal/mol
- unfolding free energy (CD): 4.54 kcal/mol
